Assay results from patent US20210309747A1.

Biological target: human PD-L1 on Raji cells (human) (UniProt Q9NZQ7)
Test: flow cytometry blocking assay on Raji-PDL1 cells; blocked ligand: biotinylated Avi- and His-tag human PD1 protein at 3 ug/mL, Streptavidin-PE, MFI; isotype control, the fitted curve falls only from MFI about 320 to about 240

Chain of human PD-L1 on Raji cells (human) (Q9NZQ7 19-290): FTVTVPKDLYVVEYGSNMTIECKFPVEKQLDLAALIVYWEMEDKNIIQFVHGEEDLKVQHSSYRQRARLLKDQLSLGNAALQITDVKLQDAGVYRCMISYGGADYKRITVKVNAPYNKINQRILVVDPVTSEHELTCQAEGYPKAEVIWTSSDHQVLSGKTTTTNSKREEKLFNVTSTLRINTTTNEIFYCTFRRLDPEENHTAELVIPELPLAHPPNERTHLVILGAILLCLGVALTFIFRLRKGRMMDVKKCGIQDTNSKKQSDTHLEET

EC50: 0.45 nM
Substance: IgG (antibody)
